Test results reported in publication PMC7773282.
Read-outs that look alike come from different tables or passages of the source.

Assays:
[1] = biological target: human proton-activated chloride channel (PAC), reconstituted in MSP3D1 lipid nanodiscs (human) (UniProt Q9H813); assay: cryo-EM structure
[2] = biological target: human proton-activated chloride channel (PAC), reconstituted in MSP3D1 lipid nanodiscs (human) (UniProt Q9H813); assay: cryo-EM structure; remark: listed apart in the source

Substance: human proton-activated chloride channel (PAC), reconstituted in MSP3D1 lipid nanodiscs (from UniProt Q9H813 1-350) (natural protein)
- stoichiometry N [1]: 3
- stoichiometry N [2]: 3
